In PMC5857711:

Biological target: serotonin receptor 1b (5-HT1b), CFP- or YFP-tagged, for FRET (human) (UniProt P28222)
UniProt P28222, sequence (P28222 whole entry): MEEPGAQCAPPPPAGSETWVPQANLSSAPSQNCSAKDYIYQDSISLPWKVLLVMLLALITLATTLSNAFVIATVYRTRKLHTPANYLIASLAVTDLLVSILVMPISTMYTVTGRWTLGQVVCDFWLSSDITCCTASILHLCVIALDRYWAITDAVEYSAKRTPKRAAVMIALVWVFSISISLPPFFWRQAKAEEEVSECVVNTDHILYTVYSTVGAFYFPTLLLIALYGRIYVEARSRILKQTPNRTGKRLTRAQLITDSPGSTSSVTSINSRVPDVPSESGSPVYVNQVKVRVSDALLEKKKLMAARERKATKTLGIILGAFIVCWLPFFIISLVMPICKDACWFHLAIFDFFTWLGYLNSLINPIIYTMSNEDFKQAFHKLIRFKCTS

For “βTAAR1 (TAAR1 with the first nine amino acids of the β2-adrenoreceptor at its N-terminus), CFP- or YFP-tagged, for FRET (from UniProt P07550 1-9)”, the Gi/o signaling: reduction of forskolin-induced cAMP (AlphaScreen) by 10 μM 5-HT in HEK293 co-expressing TAAR1 and 5-HT1b (50% for 5-HT1b alone) was 40%.
